This is an account of results in patent US20210253698A1 (AFFIMED, published 2021).

The target in this assay is T1, biotinylated, recombinant human CD16A(48R-158V) fused to human IgG1 Fc portion (human, UniProt P08637 17-208, limits assumed, biotinylated).
T1 construct: also called soluble CD16A antigen; recombinant human CD16A soluble antigen; not shown: human IgG1 Fc portion
In words: ELISA, antibody coated, soluble biotinylated CD16A-Fc titrated. For orientation: An ELISA detects its analyte on a solid surface through an enzyme-linked reagent.

T1 sequence (P08637 17-208 L66R/F176V limits assumed): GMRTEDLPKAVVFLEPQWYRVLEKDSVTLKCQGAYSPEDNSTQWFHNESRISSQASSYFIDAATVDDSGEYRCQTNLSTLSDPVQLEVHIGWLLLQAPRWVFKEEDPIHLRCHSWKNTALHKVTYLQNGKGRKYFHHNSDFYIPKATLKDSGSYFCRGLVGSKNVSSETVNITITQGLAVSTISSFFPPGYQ

B1: scDb-Tribody_01 (other)
VH: QVQLVQSGAEVKKPGESLKVSCKASGYTFTSYYMHWVRQAPGQGLEWMGIINPSGGSTSYAQKFQGRVTMTRDTSTSTVYMELSSLRSEDTAVYYCARGSAYYYDFADYWGQGTLVTVSS
VL: SYVLTQPSSVSVAPGQTATISCGGHNIGSKNVHWYQQRPGQSPVLVIYQDNKRPSGIPERFSGSNSGNTATLTISGTQAMDEADYYCQVWDNYSVLFGGGTKLTVL
notes: Trispecific; LSIV21 scDb VL-VL-VH-VH; HSA(N1) Fab, EGFR; no hinge; no Fc; Chains: anti-CD16A Fv only
Usually EC50 stands for the concentration that produces a half-maximal response. As to B1, the EC50 is 0.65 nM.
